The experiment deals with Slx4-S486A^3Flag (budding yeast), Q12098. Description: affinity purification with mass spectrometry. Particulars: remark: other sources report otherwise.

Data on one molecule can be found in paper PMC4102767.

Sequence of Slx4-S486A^3Flag (budding yeast), Q12098 (Q12098 whole entry S486A): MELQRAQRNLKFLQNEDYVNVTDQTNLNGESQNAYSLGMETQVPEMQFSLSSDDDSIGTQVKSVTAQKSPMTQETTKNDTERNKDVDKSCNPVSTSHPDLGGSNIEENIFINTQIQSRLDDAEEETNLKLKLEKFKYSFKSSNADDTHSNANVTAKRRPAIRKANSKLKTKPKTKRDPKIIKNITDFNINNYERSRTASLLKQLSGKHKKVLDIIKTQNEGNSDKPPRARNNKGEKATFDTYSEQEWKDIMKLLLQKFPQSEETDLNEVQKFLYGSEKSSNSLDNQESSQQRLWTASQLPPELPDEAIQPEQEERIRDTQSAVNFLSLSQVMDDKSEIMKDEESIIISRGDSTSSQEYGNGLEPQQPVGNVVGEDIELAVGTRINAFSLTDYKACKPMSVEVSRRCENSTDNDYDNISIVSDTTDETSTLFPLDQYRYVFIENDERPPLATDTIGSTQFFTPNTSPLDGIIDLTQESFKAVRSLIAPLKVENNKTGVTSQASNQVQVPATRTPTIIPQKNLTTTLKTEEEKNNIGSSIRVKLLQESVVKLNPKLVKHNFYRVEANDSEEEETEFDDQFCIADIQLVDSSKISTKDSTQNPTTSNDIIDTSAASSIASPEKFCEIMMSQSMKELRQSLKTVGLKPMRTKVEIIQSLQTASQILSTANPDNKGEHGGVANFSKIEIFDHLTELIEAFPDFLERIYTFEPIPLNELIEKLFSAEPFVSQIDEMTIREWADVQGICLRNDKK

B1: Dpb11, endogenous, P47027 1-764 (natural protein)
chain: MKPFQGITFCPTAINNEILAKKISKKIIKLGGIFSKDLTRQVNVLVVGSTTNTNKFKFAVKHRFDIIFIDIQAIDDIYQLWLSGENILPDSNTATMTGSTYEMLKILYRRFSFKYLHNFNIFIGRITDTNITSIDSLVRSIKKLGCSSYNYQNFVIKDTSSHNDDDDQGQNGQISIFVTDTLLGARVNAAIEQNIPIVHFKWILDCQKRSALLPYDPYYLLPNIKDLPYDSIGSNSCDCWDKINTTFPTNIDAQSSLQRQQSSSTLTPSLPKTSSLLNKFKPKGEKIWDKAMSLQQHSKTNFSVLGQSPLSINNKQEDLSDNSTLIFKNCAFIIHHIFPGNHRSILTKIVVQNGGKIETSYLSGIYDHSYYIIPSNKALDSFNDLPEIIDDNDGIVTEFFIERCLYYQKLLHPIDLWSKPFLSTIEFQVSSSSKLLHHEFSSSPFLNVTITGFSGVELLHLTKVLNLLKPMGINYVEYLNKSTDILLINLAALPSIPKTHPLWSNEFSDLFTQFCINNNNDDPGDNNRKDFQNNSILRNSMKRKIEYIKKFHSIPVVTPAFIFKLLSAASGENNEIFLNNIKWCIICPRGHKDDFKCKIKKPYYTSISSEKKYQNNDPKIDKTILLKRNNSSLSEHSMKDTKNELLQKIRETDSGRKKRSVSSSIMDVSSERQMPDTKRIKLESLPKNFVPKQIKRTTSWGTIMSENVPTEQPTAISNPEEIPRTEEVSHTQVTYGSIQDKKRTASLEKPMRRQTRNQTKELDS
B1 returned a fold reduction of binding against wild-type Slx4^3Flag of 8 fold.
